Patent US20250019453A1 (SYNTHEKINE, published 2025)

What was measured:
[1] = biological target: T1, hIL2Rg-his (Sino Biological, Catalog# 10555) (human, UniProt P31785 23-262); assay: SPR; ratio of experimental to calculated Rmax
T1 construct: Bought; also called extracellular domain of hIL2Rg
T1 sequence: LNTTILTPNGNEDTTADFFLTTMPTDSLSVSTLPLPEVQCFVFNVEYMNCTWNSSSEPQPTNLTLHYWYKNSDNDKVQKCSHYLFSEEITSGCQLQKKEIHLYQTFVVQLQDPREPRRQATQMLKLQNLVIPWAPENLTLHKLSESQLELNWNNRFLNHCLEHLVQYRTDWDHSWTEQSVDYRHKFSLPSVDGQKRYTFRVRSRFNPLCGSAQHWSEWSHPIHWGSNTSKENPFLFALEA
From the text: (§1) To confirm and evaluate binding affinities of the binding of the IL2Rg sdAbs, a representative example from each clonotype generated was selected for evaluation of binding via SPR. […] Buffer-subtracted sensograms were processed with Biacore T200 Evaluation Software and globally fit with a 1:1 Langmuir binding model (bulk shift set to zero) to extract kinetics and affinity constants (kₐ, kd, KD). RMAX<100 RU indicates surface density compatible with kinetics analysis. Calculated Rₘₐₓ values were generated using the equation: Rmax=Load (RU)×valency of ligand×(Molecular weight of analyte/Molecular weight of ligand). Surface activity was defined as the ratio of experimental/calculated Rmax.
Calculated Rmax were generated using the equation Rmax=Load (RU)×valency of ligand×(Molecular weight of analyte/Molecular weight of ligand. Surface activity was defined as the ratio experimental/calculated Rmax. See tables 16 and 17 below for sample information and experimental results.

[2] = biological target: T1, hIL2Rg-his (Sino Biological, Catalog# …); assay: SPR Biacore T200; Mono-Fc VHH captured on Protein A chip, hIL2Rg-his analyte; 1:1 Langmuir fit
From the text: as §1
All experiments were conducted in 10 mM Hepes, 150 mM NaCl, 0.05% (v/v) Polysorbate 20 (PS20) and 3 mM EDTA (HBS-EP+ buffer) on a Biacore T200 instrument equipped with a Protein A chip (Cytiva). Mono-Fc VHH ligands were flowed at 5 μl/min for variable time ranging from 18 to 300 seconds, reaching the capture loads listed in the tables below.
Following ligand capture, injections of a 2-fold dilution series of his-tagged cytokine receptors typically comprising at least five concentrations between 1 μM and 1 nM were performed in either high performance or single cycle kinetics mode. Surface regeneration was achieved by flowing 10 mM glycine-HCl, pH 1.5 (60 seconds, 50 μL/min). Buffer-subtracted sensograms were processed with Biacore T200 Evaluation Software and globally fit with a 1:1 Langmuir binding model (bulk shift set to zero) to extract kinetics and affinity constants (kₐ, kd, KD). RMAX<100 RU indicates surface density compatible with kinetics analysis.

hIL2Rb ECD antigen = biological target: T2, hIL2Rb ECD antigen (human, UniProt P14784 27-240); assay: PE-ELISA of phage clones
T2 construct: The immunogen was the ECD fused to human IgG1 hinge and Fc; also called ECD of IL2Rb (human); human IL-2Rβ
T2 sequence: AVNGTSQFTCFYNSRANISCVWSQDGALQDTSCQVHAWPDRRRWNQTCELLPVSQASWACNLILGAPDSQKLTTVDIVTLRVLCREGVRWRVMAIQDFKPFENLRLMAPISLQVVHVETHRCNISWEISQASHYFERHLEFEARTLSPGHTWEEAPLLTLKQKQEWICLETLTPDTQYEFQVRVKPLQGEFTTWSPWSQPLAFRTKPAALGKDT

| Binder | Surface Activity [1] [%] | Kd [2] [nM] | koff [2] [s⁻¹] | kon [2] [M⁻¹ s⁻¹] | binding result (hIL2Rb ECD antigen) |
| --- | --- | --- | --- | --- | --- |
| hIL-2Rg_VHH8 Mono-Fc VHH (Fc fusion, not shown: a dimerising Fc or GST) QVQLQESGGGSVQAGGSLRLSCVASGYTFSSYCMGWFRQAPGKEREGVAALGGGSTYYADSVKGRFTISQDNAKNTLYLQMNSLKPEDTAMYYCAAAWVACLEFGGSWYDLARYKHWGQGTQVTVSS | 110 | 2.2 | 0.000812 | 366000 | – |
| hIL-2Rg_VHH19 Mono-Fc VHH (Fc fusion, not shown: a dimerising Fc or GST) QVQLQESGGGSVQAGGSLRLSCTASGFTFDDREMNWYRQAPGNECELVSTISSDGSTYYADSVKGRFTISQDNAKNTVYLQMDSVKPEDTAVYYCAADFMIAIQAPGAGCWGQGTQVTVSS | 33 | 2.4 | 0.00693 | 2.85e+06 | – |
| hIL-2Rg_VHH20 Mono-Fc VHH (Fc fusion, not shown: a dimerising Fc or GST) QVQLQESGGGSVQAGGSLRLSCTASGFTFDDSDMGWYRQAPGNECELVSTISSDGSTYYADSVKGRFTISQDNAKNTVYLQMNSLKPEDTAVYYCAAEPRGYYSNYGGRRECNYWGQGTQVTVSS | 48 | 14.1 | 0.0027 | 192000 | – |
| hIL-2Rg_VHH22 Mono-Fc VHH (Fc fusion, not shown: a dimerising Fc or GST) QVQLQESGGGLVQPGGSLRLSCTASGFSFSSYPMTWARQAPGKGLEWVSTIASDGGSTAYAASVEGRFTISRDNAKSTLYLQLNSLKTEDTAMYYCTKGYGDGTPAPGQGTQVTVSS | 108 | 6.4 | 0.00354 | 554000 | – |
| hIL-2Rg_VHH21 Mono-Fc VHH (Fc fusion, not shown: a dimerising Fc or GST) QVQLQESGGGSVQAGGSLRLSCVASGYTSCMGWFRQAPGKEREAVATIYTRGRSIYYADSVKGRFTISQDNAKNTLYLQMNSLKPEDIAMYSCAAGGYSWSAGCEFNYWGQGTQVTVSS | 6 | 17.2 | 0.00113 | 65600 | – |
| hIL2Rb_VHH-8 (VHH, As a his-tagged phage clone periplasmic extract) VHH: QVQLQESGGGSVQVGGSLKLSCAASGYTYSSYYCMGWFRQAPGKEREGVAAIDSDGSTSYADSVKGRFTISQDDAKNTLYLQMNSLKPEDTAMYYCAASYEVVDCYPSGYGQDYWGKGTQVTVSS | – | – | – | – | binds |
| hIL-2Rg_VHH15 Mono-Fc VHH (Fc fusion, not shown: a dimerising Fc or GST) QVQLQESGGGLVQPGGSLRLSCAASGFTFSSAHMSWVRQAPGKGREWIASIYSGGGTFYADSVKGRFTISRDNAKNTLYLQLNSLKAEDTAMYYCATNRLHYYSDDDSLRGQGTQVTVSS | 73 | 26 | 0.00251 | 96800 | – |
